Measured values reported in article doi:10.1101/2024.08.16.608256 (bioRxiv, 2024).

Target: the molecule itself
Assay: SDS-resistant dimer on SDS-PAGE with western blot

Row | Protein | binding result | stoichiometry N
1 | ΔN(45)-YqjD (domain or fragment, E. coli, UniProt P64581 46-101, looked up) ALKQSRYRLGETGDAIAKQTRVAAARADEYVRENPWTGVGIGAAIGVVLGVLLSRR | binds | 
2 | ΔN(30)-YqjD (domain or fragment, E. coli, UniProt P64581 31-101, looked up) KSKEELSKIRSKAEQALKQSRYRLGETGDAIAKQTRVAAARADEYVRENPWTGVGIGAAIGVVLGVLLSRR | binds | 
3 | IAKQTRVAAARADEYVRENPWTGVGIGAAIGVVLGVLLSRR (domain or fragment, E. coli, UniProt P64581 61-101, looked up) [ΔN(60)-YqjD] | binds | 
4 | ΔN(12)-YqjD (domain or fragment, E. coli, UniProt P64581 13-101, looked up) ELKSLSDTLEEVLSSSGEKSKEELSKIRSKAEQALKQSRYRLGETGDAIAKQTRVAAARADEYVRENPWTGVGIGAAIGVVLGVLLSRR | binds | 
5 | YqjD (wild type, full-length, N-terminal Xpress-His6-tag) (natural protein, E. coli, UniProt P64581 1-101, looked up) MSKEHTTEHLRAELKSLSDTLEEVLSSSGEKSKEELSKIRSKAEQALKQSRYRLGETGDAIAKQTRVAAARADEYVRENPWTGVGIGAAIGVVLGVLLSRR |  | 2
